# Experimental data from article doi:10.1101/723213.
# How the values were obtained:
# [1] = molecular target: CENP-A_(101-225)–H4 heterodimer (Drosophila melanogaster), Q9V6Q2; experiment: SEC-MALS; conditions: remark: other sources report otherwise
# [2] = molecular target: CENP-A_(144-225)–H4 heterodimer (Drosophila melanogaster), Q9V6Q2; experiment: SEC-MALS; conditions: remark: other sources report otherwise
# CENP-A_(144-225)–H4 heterodimer (Drosophila melanogaster), Q9V6Q2, sequence (Q9V6Q2 144-225, one chain of several): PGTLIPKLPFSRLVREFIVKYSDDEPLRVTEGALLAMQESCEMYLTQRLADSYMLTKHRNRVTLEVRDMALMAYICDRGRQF
# CENP-A_(101-225)–H4 heterodimer (Drosophila melanogaster), Q9V6Q2, sequence (Q9V6Q2 101-225, one chain of several): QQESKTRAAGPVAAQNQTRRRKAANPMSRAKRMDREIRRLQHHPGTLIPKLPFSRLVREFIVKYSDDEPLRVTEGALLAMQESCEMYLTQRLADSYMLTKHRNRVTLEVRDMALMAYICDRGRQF
binder,measurement,setting,value
"His-CAL1_(1-160), Q9VEN2 1-160 (domain or fragment) MANAVVDEETLEAMVYERSKAWSSKMADFASLEDGMEIDVAEFDNLFHGEDEDPDLDDVAKEAVEDNVPDEAKLEMGHINATSVTELTLILCANEDNEAKAEIEEILNQTVPVVEEHKRKWREAGLDRILDTFDEKQIEHHVGRWMRRHNSVYLEASPPK",stoichiometry N (CAL1 per CENP-A/H4 heterodimer),[1],1
same,stoichiometry N (CAL1 per CENP-A/H4 heterodimer),[2],1
